Biological target: T1, P140 (Mycoplasma genitalium, UniProt P20796 59-1444)
T1 construct: P140 of the nap particle adhesion complex, Mycoplasma genitalium G37; endogenous and not truncated, with stalk, transmembrane helix and intracellular region (residues up to 1444 are spoken of); The same endogenous protein was also studied in the nap particle purified from M. genitalium; that purification is described in an earlier publication of the authors; also called P140 adhesin of the nap …
T1 sequence: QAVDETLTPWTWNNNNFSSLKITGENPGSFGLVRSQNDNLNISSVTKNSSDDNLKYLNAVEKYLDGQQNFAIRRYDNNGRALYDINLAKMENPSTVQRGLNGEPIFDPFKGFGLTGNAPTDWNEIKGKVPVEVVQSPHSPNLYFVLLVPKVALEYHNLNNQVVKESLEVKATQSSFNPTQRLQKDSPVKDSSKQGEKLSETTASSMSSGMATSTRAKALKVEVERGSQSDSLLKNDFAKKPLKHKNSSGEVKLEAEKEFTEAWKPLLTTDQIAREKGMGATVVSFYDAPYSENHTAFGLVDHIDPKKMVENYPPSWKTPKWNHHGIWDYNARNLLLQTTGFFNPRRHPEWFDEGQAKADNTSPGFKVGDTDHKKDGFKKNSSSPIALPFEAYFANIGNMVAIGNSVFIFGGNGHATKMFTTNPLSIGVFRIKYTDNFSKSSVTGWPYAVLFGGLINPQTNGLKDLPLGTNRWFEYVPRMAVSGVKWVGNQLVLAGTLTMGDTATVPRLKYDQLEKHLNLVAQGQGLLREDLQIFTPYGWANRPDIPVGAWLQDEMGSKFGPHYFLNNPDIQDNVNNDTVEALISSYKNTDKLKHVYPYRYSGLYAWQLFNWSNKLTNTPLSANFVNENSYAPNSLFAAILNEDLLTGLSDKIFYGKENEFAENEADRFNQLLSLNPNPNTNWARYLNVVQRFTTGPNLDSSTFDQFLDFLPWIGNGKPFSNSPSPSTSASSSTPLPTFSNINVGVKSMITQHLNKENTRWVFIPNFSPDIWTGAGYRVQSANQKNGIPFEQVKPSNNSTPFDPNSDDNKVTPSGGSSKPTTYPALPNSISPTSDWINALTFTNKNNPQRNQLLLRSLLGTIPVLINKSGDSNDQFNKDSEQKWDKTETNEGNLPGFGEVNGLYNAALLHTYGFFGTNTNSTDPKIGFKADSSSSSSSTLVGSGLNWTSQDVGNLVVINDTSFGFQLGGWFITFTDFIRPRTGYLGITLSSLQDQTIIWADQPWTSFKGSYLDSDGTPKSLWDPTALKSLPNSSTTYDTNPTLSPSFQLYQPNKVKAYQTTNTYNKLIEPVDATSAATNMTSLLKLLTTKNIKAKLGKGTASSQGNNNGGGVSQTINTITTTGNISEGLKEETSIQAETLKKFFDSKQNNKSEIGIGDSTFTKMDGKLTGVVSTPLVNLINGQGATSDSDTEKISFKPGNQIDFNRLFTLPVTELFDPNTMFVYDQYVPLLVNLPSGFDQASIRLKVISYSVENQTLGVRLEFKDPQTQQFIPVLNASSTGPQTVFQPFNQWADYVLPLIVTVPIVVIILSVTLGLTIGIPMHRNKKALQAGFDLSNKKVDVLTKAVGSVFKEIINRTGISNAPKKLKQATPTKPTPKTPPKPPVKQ
Test: cryo-EM structure; single-particle cryo-EM of the isolated nap particle purified from M. genitalium, with and without soaking in 10 mM 6'-SL (75 mM Tris-HCl pH 7.4, 400 mM NaCl, 5% glycerol, 0.5% octylglucoside); heterodimer classes at 3.3 and 3.7 Å, tetramer classes at 8.3, 7.3 and 7.7 Å
Conditions: both partners purified

B1: P110 (natural protein)
chain: NTFLVKEDSKNVTAYTPFATPITDSKSDLVSLAQLDSSYQIADQTIHNTNLFVLFKSRDVKVKYESSGSNNISFDSTSQGEKPSYVVEFTNSTNIGIKWTMVKKYQLDVPNVSSDMNQVLKNLILEQPLTKYTLNSSLAKEKGKTQREVHLGSGQANQWTSQRNQHDLNNNPSPNASTGFKLTTGNAYRKLSESWPIYEPIDGTKQGKGKDSSGWSSTEENEAKNDAPSVSGGGSSSGTFNKYLNTKQALESIGILFDDQTPRNVITQLYYASTSKLAVTNNHIVVMGNSFLPSMWYWVVERSAQENASNKPTWFANTNLDWGEDKQKQFVENQLGYKETTSTNSHNFHSKSFTQPAYLISGIDSVNDQIIFSGFKAGSVGYDSSSSSSSSSSSSTKDQALAWSTTTSLDSKTGYKDLVTNDTGLNGPINGSFSIQDTFSFVVPYSGNHTNNGTTGPIKTAYPVKKDQKSTVKINSLINATPLNSYGDEGIGVFDALGLNYNFKSNQERLPSRTDQIFVYGIVSPNELRSAKSSADSTGSDTKVNWSNTQSRYLPVPYNYSEGIIDADGFKRPENRGASVTTFSGLKSIAPDGFANSIANFSVGLKAGIDPNPVMSGKKANYGAVVLTRGGVVRLNFNPGNDSLLSTTDNNIAPISFSFTPFTAAESAVDLTTFKEVTYNQESGLWSYIFDSSLKPSHDGKQTPVTDNMGFSVITVSRTGIELNQDQATTTLDVAPSALAVQSGIQSTTQTLTGVLPLSEEFSAVIAKDSDQNKIDIYKNNNGLFEIDTQLSNSVATNNGGLAPSYTENRVDAWGKVEFADNSVLQARNLVDKTVDEIINTPEILNSFFRFTPAFEDQKATLVATKQSDTSLSVSPRIQFLDGNFYDLNSTIAGVPLNIGFPSRVFAGFAALPAWVIPVSVGSSVGILFILLVLGLGIGIPMYRVRKLQDASFVNVFKKVDTLTTAVGSVYKKIITQTGVVKKAPSALKAANPSVKKPAAFLKPPVQPPSKPEGEQKAVEVKSEETKS
notes: P110 of the nap particle adhesion complex, Mycoplasma genitalium G37; endogenous and not truncated, with stalk, transmembrane helix and intracellular region (residues up to 1053 are spoken of); The same endogenous protein was also studied in the nap particle purified from M. genitalium; that purification is described in an earlier publication of the authors; also called P110 adhesin of the nap …
B1: binds.

From paper PMC10659161, “Cryo-electron tomography reveals the binding and release states of the major adhesion complex from Mycoplasma genitalium” (PLOS Pathogens, 2023)
